Measured values taken from publication PMC7498065, “Isolation of antigen-specific, disulphide-rich knob domain peptides from bovine antibodies” (PLoS Biology, 2020).
Read-outs that look alike come from different tables or passages of the source.

B1: PGT121-K136: human Fab PGT121 with the K136 knob domain inserted into CDRH3, flanked by TEV protease sites (antibody)
VH: QMQLQESGPGLVKPSETLSLTCSVSGASISDSYWSWIRRSPGKGLEWIGYVHKSGDTNYSPSLKSRVNLSLDTSKNQVSLSLVAATAADSGKYYCARTLHGRRIYGSENLYFQGTCPDNYREVDGCDPYDCCLTTWCTNSYCTRYIENLYFQGSEWFTYFYMDVWGNGTQVTVSS
VL: QSVLTQPPDISVAPGETARISCGEKSLGSRAVQWYQHRAGQAPSLIIYNNQDRPSGIPERFSGSPDSPFGTTATLTITSVEAGDEADYYCHIWDSRVPTKWVFGGGTTLTVL
B2: PGT121-K149: human Fab PGT121 with the K149 knob domain inserted into CDRH3, flanked by TEV protease sites (antibody)
VH: QMQLQESGPGLVKPSETLSLTCSVSGASISDSYWSWIRRSPGKGLEWIGYVHKSGDTNYSPSLKSRVNLSLDTSKNQVSLSLVAATAADSGKYYCARTLHGRRIYGSENLYFQGSCPDGFSYRSWDDFCCPMVGRCLAPRNGSENLYFQGSEWFTYFYMDVWGNGTQVTVSS
VL: B1 VL

What was measured:
Complement component C5 = Complement component C5 (Homo sapiens, UniProt P01031); experiment: Biacore SPR single-cycle kinetics of PGT121 Fab-knob domain fusion proteins binding to C5; details: for Mean kon: C5 amine-coupled on CM5 chip, analyte 1.37 nM-1 µM in HBS-EP; for Mean Stoichiometric ratio at 1 µM: SPR, analyte 1 µM
Description: For PGT121 fusion proteins, flow cells were activated using a minimal immobilisation protocol: EDC/NHS was mixed at 1:2 ratio (flow rate, 10 μL/min; contact time, 30 s). C5, at 1 μg/mL in pH 4.5 sodium-acetate buffer, was immobilized on flow cell 2 only (flow rate, 10 μL/min; contact time, 420 s). Finally, ethanolamine was applied to both flow cells (flow rate, 10 μL/min; contact time, 420 s).
For knob domain peptides, flow cells were activated using a standard immobilisation protocol: EDC/NHS was mixed at 1:1 ratio (flow rate, 10 μL/min; contact time, 30 s). C5, at 1 μg/mL in pH 4.5 sodium-acetate buffer, was immobilized on flow cell 2 only (flow rate, 10 μL/min; contact time, 420 s). Finally, ethanolamine was applied to both flow cells (flow rate, 10 μL/min; contact time, 420 s). […] For the PGT121-K149 fusion protein and K149 knob domain, the same immobilisation protocols were used but with a 750 ng/mL solution of C5, instead of 1 μg/mL.
One-micromolar stock solutions of the analytes (PGT121 knob domain fusion proteins and free knob domain peptides) were prepared in HBS-EP buffer. A series of six 3-fold dilutions of each stock solution was prepared in the same buffer. The result was 7 solutions for each analyte, at concentrations ranging from 1 μM down to 1.37 nM. A high flow rate of 40 μL/min was used, with a contact time of 230 s and a dissociation time of 1,800 s for knob domain peptides and 10,000 s for PGT121 knob domain fusion proteins. For the PGT121-K149 fusion protein and K149 knob domain, the flow rate was further increased to 100 μL/min. Binding to the reference surface was subtracted, and the data were fitted to a single-site binding model using Biacore evaluation software. Data were inspected for evidence of mass transport limitation using the flow-rate–independent component of the mass transfer constant (tc).

C5 = C5 (Homo sapiens, UniProt P01031); experiment: Steady state FRET binding assay, AF647-labelled PGT121 knob fusion proteins binding to C5-Tb (KD app); details: C5-Tb 1 nM
[1] = 2 hour incubation, experiment n2, read-out: KD app
[2] = 2 hour incubation, experiment n3, read-out: KD app
[3] = 2 hour incubation, geomean of n=3, read-out: Geomean KD app
[4] = 24 hour incubation, experiment n2, read-out: KD app
[5] = 24 hour incubation, experiment n3, read-out: KD app
[6] = 24 hour incubation, geomean of n=3, read-out: Geomean KD app

Chain of Complement component C5 (P01031 19-673 limits assumed): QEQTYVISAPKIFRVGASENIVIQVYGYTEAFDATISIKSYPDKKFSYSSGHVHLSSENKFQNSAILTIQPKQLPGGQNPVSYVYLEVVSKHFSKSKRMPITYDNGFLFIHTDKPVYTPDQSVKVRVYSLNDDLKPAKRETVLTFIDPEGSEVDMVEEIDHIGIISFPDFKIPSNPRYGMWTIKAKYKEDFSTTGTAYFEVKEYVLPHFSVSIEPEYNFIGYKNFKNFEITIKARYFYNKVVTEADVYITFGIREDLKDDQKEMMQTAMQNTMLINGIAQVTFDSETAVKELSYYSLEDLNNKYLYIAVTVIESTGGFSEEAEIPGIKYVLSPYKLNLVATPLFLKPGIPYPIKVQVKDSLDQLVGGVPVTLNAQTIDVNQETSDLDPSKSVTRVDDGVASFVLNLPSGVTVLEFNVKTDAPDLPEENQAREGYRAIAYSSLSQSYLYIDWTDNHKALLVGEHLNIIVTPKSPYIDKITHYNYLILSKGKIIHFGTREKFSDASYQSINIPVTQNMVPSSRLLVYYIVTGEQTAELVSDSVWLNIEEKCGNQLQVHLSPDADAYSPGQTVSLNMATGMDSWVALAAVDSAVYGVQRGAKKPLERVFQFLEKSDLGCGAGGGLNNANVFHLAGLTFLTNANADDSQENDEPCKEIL
Chain of Complement component C5 (P01031 678-1676 limits assumed): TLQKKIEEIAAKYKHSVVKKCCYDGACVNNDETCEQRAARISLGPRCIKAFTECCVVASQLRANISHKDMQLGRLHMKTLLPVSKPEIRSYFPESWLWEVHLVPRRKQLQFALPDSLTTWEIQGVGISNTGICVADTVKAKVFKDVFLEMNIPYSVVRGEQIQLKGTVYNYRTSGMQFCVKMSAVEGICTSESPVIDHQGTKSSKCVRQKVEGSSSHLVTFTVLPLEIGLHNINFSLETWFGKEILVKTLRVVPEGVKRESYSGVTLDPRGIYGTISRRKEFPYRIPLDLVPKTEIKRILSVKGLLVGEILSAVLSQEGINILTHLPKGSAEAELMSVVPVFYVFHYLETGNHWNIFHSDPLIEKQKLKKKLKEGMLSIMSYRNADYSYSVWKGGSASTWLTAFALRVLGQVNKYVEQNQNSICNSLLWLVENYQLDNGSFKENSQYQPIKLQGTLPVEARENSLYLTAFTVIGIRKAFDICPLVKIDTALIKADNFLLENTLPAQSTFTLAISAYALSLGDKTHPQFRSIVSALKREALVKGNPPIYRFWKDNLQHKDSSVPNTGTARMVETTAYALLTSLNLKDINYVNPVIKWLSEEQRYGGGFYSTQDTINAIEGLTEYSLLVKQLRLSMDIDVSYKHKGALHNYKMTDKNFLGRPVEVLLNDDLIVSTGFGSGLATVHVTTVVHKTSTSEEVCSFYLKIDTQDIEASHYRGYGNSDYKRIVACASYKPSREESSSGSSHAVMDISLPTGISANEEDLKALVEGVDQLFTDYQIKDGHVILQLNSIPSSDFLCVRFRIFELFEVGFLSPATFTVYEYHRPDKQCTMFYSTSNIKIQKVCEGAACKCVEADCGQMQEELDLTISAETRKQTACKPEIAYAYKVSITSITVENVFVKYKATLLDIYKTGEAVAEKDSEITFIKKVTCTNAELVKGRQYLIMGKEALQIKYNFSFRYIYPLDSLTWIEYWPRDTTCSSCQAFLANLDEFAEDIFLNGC
Chain of C5 (P01031 19-673 limits assumed): as the sequence (P01031 19-673 limits assumed) above
Chain of C5 (P01031 678-1676 limits assumed): as the sequence (P01031 678-1676 limits assumed) above

Molecule | Mean kon (Complement component C5; 1:1 model, mean of n=3) [M⁻¹ s⁻¹] | Mean Stoichiometric ratio at 1 µM (Complement component C5; mean of n=3) | Rmax (Complement component C5; occasion n=1) [RU] | Stoichiometric ratio at 1 µM (Complement component C5; occasion n=1) | kon (Complement component C5; occasion n=1) [M⁻¹ s⁻¹] | Kd (Complement component C5; occasion n=1, read-out: KD) [nM] | Rmax (Complement component C5; occasion n=2) [RU] | Stoichiometric ratio at 1 µM (Complement component C5; occasion n=2) | kon (Complement component C5; occasion n=2) [M⁻¹ s⁻¹] | Kd (Complement component C5; occasion n=2, read-out: KD) [nM] | Rmax (Complement component C5; occasion n=3) [RU] | Stoichiometric ratio at 1 µM (Complement component C5; occasion n=3) | kon (Complement component C5; occasion n=3) [M⁻¹ s⁻¹] | Kd (Complement component C5; occasion n=3, read-out: KD) [nM] | Kd (C5; [1]) [nM] | Kd (C5; [2]) [nM] | Kd (C5; [3]) [nM] | Kd (C5; [4]) [nM] | Kd (C5; [5]) [nM] | Kd (C5; [6]) [nM] | other results
B1 | 4760 | 0.8 | 38.9 | 0.82 | 5480 | < 1.82 | 38.4 | 0.8 | 3520 | < 2.84 | 40.4 | 0.9 | 5280 | < 1.89 | 46.3 | 115 | 73 | 23.4 | 58.1 | 39.8 | Kd (Complement component C5; SPR single-cycle kinetics, 1:1 model, mean of n=3, read-out: Mean KD): < 2.19 nM; off rate (koff) (Complement component C5; exceeded the limit for koff determination by Biacore): < 1e-05 s⁻¹
B2 | 3750 | 0.5 | 13.00 | 0.5 | 5270 | 283 | 10.00 | 0.5 | 3840 | 425 | 10.00 | 0.4 | 2150 | 842 | 57.6 | 30.1 | 39.3 | 90.6 | 24.9 | 65.9 | Mean koff (Complement component C5; SPR single-cycle kinetics, 1:1 model, mean of n=3, koff capped at 1.00E-05 s^-1): 0.00164 s⁻¹; koff (Complement component C5; occasion n=1): 0.00149 s⁻¹; koff (Complement component C5; occasion n=2): 0.00162 s⁻¹; koff (Complement component C5; occasion n=3): 0.00181 s⁻¹; Kd (C5; 2 hour incubation, experiment n1, read-out: KD app): 34.9 nM; Kd (C5; 24 hour incubation, experiment n1, read-out: KD app): 127 nM
